Laboratory results reported in US20240132578A1 (published 2024).

B1: 1443_C16 (PG16) (TCN-116) (antibody, V domains shown)
VH: QEQLVESGGGVVQPGGSLRLSCLASGFTFHKYGMHWVRQAPGKGLEWVALISDDGMRKYHSDSMWGRVTISRDNSKNTLYLQFSSLKVEDTAMFFCAREAGGPIWHDDVKYYDFNDGYYNYHYMDVWGKGTTVTVSS
VL: QSALTQPASVSGSPGQTITISCNGTSSDVGGFDSVSWYQQSPGKAPKVMVFDVSHRPSGISNRFSGSKSGNTASLTISGLHIEDEGDYFCSSLTDRSHRIFGGGTKVTVLG
B2: 1443_C16 (PG16) (TCN-116) (antibody, V domains shown)
VH: B1 VH
VL: B1 VL
B3: 1496_C09 (PG9) (TCN-109) (antibody, V domains shown)
VH: QRLVESGGGVVQPGSSLRLSCAASGFDFSRQGMHWVRQAPGQGLEWVAFIKYDGSEKYHADSVWGRLSISRDNSKDTLYLQMNSLRVEDTATYFCVREAGGPDYRNGYNYYDFYDGYYNYHYMDVWGKGTTVTVSS
VL: QSALTQPASVSGSPGQSITISCNGTSNDVGGYESVSWYQQHPGKAPKVVIYDVSKRPSGVSNRFSGSKSGNTASLTISGLQAEDEGDYYCKSLTSTRRRVFGTGTKLTVLG
B4: 1496_C09 (PG9) (TCN-109) (antibody, V domains shown)
VH: B3 VH
VL: B3 VL
B5: 1460_G14 (PGG14) (antibody, human IgG1, kappa, V domains shown)
VH: QVLLVQSGTEVKKPGSSVKVSCQASGGAFSSYAFSWVRQAPGQGLEWMGMITPVFGETKYAPRFQGRLTLTAEESLSTTYMELRSLTSDDTAFYYCTRDRRVVPMATDNWLDPWGQGTLVTVSS
VL: DIQLTQSPSSLSASVGDRVTVTCRASQTIHTYLNWYQQIPGKAPKLLIYGASTLQSGVPSRFSGSGSGTDFTLTINSLQPEDFATYYCQQSYSTPRTFGQGTRLDIKR

Legend:
[1] = molecular target: HIV-1 93UG077 Env (clade A pseudovirus) (HIV-1); test: cell-based or functional assay
[2] = molecular target: HIV-1 92BR020 Env (clade B pseudovirus) (HIV-1); test: cell-based or functional assay
[3] = molecular target: HIV-1 APV-13 Env (clade B pseudovirus) (HIV-1); test: cell-based or functional assay
[4] = molecular target: HIV-1 JRCSF Env (clade B pseudovirus) (HIV-1, UniProt P20871 32-848); test: cell-based or functional assay
[5] = molecular target: HIV-1 APV-17 Env (clade B pseudovirus) (HIV-1); test: cell-based or functional assay
[6] = molecular target: HIV-1 APV-6 Env (clade B pseudovirus) (HIV-1); test: cell-based or functional assay
[7] = molecular target: HIV-1 93IN905 Env (clade C pseudovirus) (HIV-1); test: cell-based or functional assay
[8] = molecular target: HIV-1 IAVI-C18 Env (clade C pseudovirus) (HIV-1); test: cell-based or functional assay
[9] = molecular target: HIV-1 IAVI-C22 Env (clade C pseudovirus) (HIV-1); test: cell-based or functional assay
[10] = molecular target: HIV-1 IAVI-C3 Env (clade C pseudovirus) (HIV-1); test: cell-based or functional assay
[11] = molecular target: HIV-1 92UG024 Env (clade D pseudovirus) (HIV-1); test: cell-based or functional assay
[12] = molecular target: HIV-1 92UG005 Env (clade D pseudovirus) (HIV-1); test: cell-based or functional assay
[13] = molecular target: HIV-1 92TH021 Env (CRF01_AE pseudovirus) (HIV-1); test: cell-based or functional assay
[14] = molecular target: HIV-1 CMU02 Env (CRF01_AE pseudovirus) (HIV-1); test: cell-based or functional assay
[15] = molecular target: aMLV envelope (negative control pseudovirus); test: cell-based or functional assay
[16] = molecular target: HIV-1 94UG103 Env (clade A pseudovirus) (HIV-1); test: cell-based or functional assay
[17] = molecular target: HIV-1 92RW020 Env (clade A pseudovirus) (HIV-1); test: cell-based or functional assay
recombinant gp41 HxB2 = molecular target: T1, recombinant gp41 HxB2 (HIV-1, UniProt P04578 541-682); test: screening ELISA on recombinant gp41 (column mAb Specificity)
T1 construct: domain: gp41

[18] = molecular target: T2, recombinant, monomeric gp120 JR-CSF (HIV-1, UniProt P20871 32-503); test: screening ELISA on recombinant gp120 (column mAb Specificity)
T2 construct: domain: gp120; also called JR-CSF gp120

[19] = molecular target: T3, HIV-1 YU2 gp160 expressed on the cell surface (HIV-1 strain YU2, UniProt P35961 32-843); test: flow cytometry on transfected cells (FIG. 8)
T3 construct: whole, on cells

[20] = molecular target: T4, V1/V2 deleted HIV-1JR-CSF Env expressed on transfected cells (HIV-1 strain JR-CSF, UniProt P20871 32-848); test: flow cytometry on transfected 293T cells (FIG. 13E)
T4 construct: whole, on cells; also called variable loop deleted HIV-1JR-CSF variant (V1/V2)

[21] = molecular target: T5, V3 deleted HIV-1JR-CSF Env expressed on transfected cells (HIV-1 strain JR-CSF, UniProt P20871 32-848); test: as above
T5 construct: whole, on cells; also called variable loop deleted HIV-1JR-CSF variant (V3)

[22] = molecular target: T6, recombinant, monomeric gp120JR-CSF (HIV-1 isolate JR-CSF, UniProt P20871 32-503); test: ELISA, initial screen of B cell culture supernatants
T6 construct: domain: gp120; also called JR-CSF gp120; JR-CSFgp120

recombinant gp41HxB2 = molecular target: T7, recombinant gp41HxB2 (HIV-1 clone HxB2, UniProt P04578 541-682); test: as above
T7 construct: domain: gp41

[23] = molecular target: HIV-1 93IN905 envelope protein (Env) on pseudotyped virus (HIV-1 strain 93IN905); test: cell-based or functional assay
[24] = molecular target: HIV-1 IAVI_C22 envelope protein (Env) on pseudotyped virus (HIV-1 strain IAVI C22); test: cell-based or functional assay
[25] = molecular target: HIV-1 92TH021 envelope protein (Env) on pseudotyped virus (HIV-1 strain 92TH021); test: cell-based or functional assay
[26] = molecular target: HIV-1 JR-CSF envelope protein (Env) on pseudotyped virus (HIV-1 isolate JR-CSF, UniProt P20871 32-848); test: cell-based or functional assay
[27] = molecular target: HIV-1 NL43 envelope protein (Env) on pseudotyped virus (HIV-1 strain NL43); test: cell-based or functional assay
[28] = molecular target: aMLV envelope on pseudotyped virus (negative control) (aMLV); test: cell-based or functional assay
[29] = molecular target: HIV-1 SF162 envelope protein (Env) on pseudotyped virus (HIV-1 isolate SF162, UniProt P19550 32-847); test: cell-based or functional assay
[30] = molecular target: HIV-1 94UG103 envelope protein (Env) on pseudotyped virus (HIV-1 strain 94UG103); test: cell-based or functional assay
[31] = molecular target: HIV-1 92BR020 envelope protein (Env) on pseudotyped virus (HIV-1 strain 92BR020); test: cell-based or functional assay

Binder	IC50 (µg/mL), pseudovirus neutralization [1]	IC50 (µg/mL), pseudovirus neutralization [2]	IC50 (µg/mL), pseudovirus neutralization [3]	IC50 (µg/mL), pseudovirus neutralization [4]	IC50 (µg/mL), pseudovirus neutralization [5]	IC50 (µg/mL), pseudovirus neutralization [6]	IC50 (µg/mL), pseudovirus neutralization [8]	IC50 (µg/mL), pseudovirus neutralization [10]	IC50 (µg/mL), pseudovirus neutralization [12]	IC50 (µg/mL), pseudovirus neutralization [14]	IC50 (µg/mL), pseudovirus neutralization [15]	IC50 (µg/mL), pseudovirus neutralization [16]	IC50 (µg/mL), pseudovirus neutralization [17]	binding result (recombinant gp41 HxB2)	binding result (recombinant gp41HxB2)	further results
B1	> 50 µg/mL	> 50 µg/mL	> 50 µg/mL	< 0.0025 µg/mL	> 50 µg/mL	0.08 µg/mL	0.007 µg/mL	14.8 µg/mL	> 50 µg/mL	> 50 µg/mL	> 50 µg/mL	0.008 µg/mL	0.004 µg/mL	no binding		IC50 (µg/mL), pseudovirus neutralization [7]: 0.1 µg/mL; IC50 (µg/mL), pseudovirus neutralization [9]: 0.069 µg/mL; IC50 (µg/mL), pseudovirus neutralization [11]: > 50 µg/mL; IC50 (µg/mL), pseudovirus neutralization [13]: 0.13 µg/mL; binding result [18]: no binding
B2															no binding	binding result [19]: binds; binding result [20]: no binding; binding result [21]: no binding; binding result [22]: no binding
B3	> 50 µg/mL	> 50 µg/mL	> 50 µg/mL	< 0.0025 µg/mL	26.4 µg/mL	0.09 µg/mL	0.05 µg/mL	12.9 µg/mL	> 50 µg/mL	> 50 µg/mL	> 50 µg/mL	0.17 µg/mL	0.06 µg/mL	no binding		
B4															no binding	
B5																IC50, Neutralizing Antibody Assay, Virus/Ab Incubation 1 hour [23]: > 50 µg/mL; IC50, Neutralizing Antibody Assay, Virus/Ab Incubation 18 hour [23]: 3.17 µg/mL; IC50, Neutralizing Antibody Assay, Virus/Ab Incubation 1 hour [24]: > 50 µg/mL; IC50, Neutralizing Antibody Assay, Virus/Ab Incubation 18 hour [24]: > 50 µg/mL; IC50, Neutralizing Antibody Assay, Virus/Ab Incubation 1 hour [25]: > 50 µg/mL; IC50, Neutralizing Antibody Assay, Virus/Ab Incubation 18 hour [25]: > 50 µg/mL; IC50, Neutralizing Antibody Assay, Virus/Ab Incubation 1 hour [26]: > 50 µg/mL; IC50, Neutralizing Antibody Assay, Virus/Ab Incubation 18 hour [26]: > 50 µg/mL; IC50, Neutralizing Antibody Assay, Virus/Ab Incubation 1 hour [27]: 0.17 µg/mL; IC50, Neutralizing Antibody Assay, Virus/Ab Incubation 18 hour [27]: 0.05 µg/mL; IC50, Neutralizing Antibody Assay, Virus/Ab Incubation 1 hour [28]: > 50 µg/mL; IC50, Neutralizing Antibody Assay, Virus/Ab Incubation 18 hour [28]: > 50 µg/mL; IC50, Neutralizing Antibody Assay, Virus/Ab Incubation 1 hour [29]: 0.179 µg/mL; IC50, Neutralizing Antibody Assay, Virus/Ab Incubation 18 hour [29]: 0.0573 µg/mL; IC50, Neutralizing Antibody Assay, Virus/Ab Incubation 1 hour [30]: > 50 µg/mL; IC50, Neutralizing Antibody Assay, Virus/Ab Incubation 18 hour [30]: > 50 µg/mL; IC50, Neutralizing Antibody Assay, Virus/Ab Incubation 1 hour [31]: > 50 µg/mL; IC50, Neutralizing Antibody Assay, Virus/Ab Incubation 18 hour [31]: > 50 µg/mL
